Entries after “also recorded” stand apart in the source; their conditions may differ.
How the values were obtained:
[1] = biological target: T1, Bcl-xL (Homo sapiens, UniProt Q07817, DEL27-82); assay: Heterocomplex formation with Bcl-xL (native MS, SEC-MALS, gel filtration); type: binding; settings: native MS: Bcl-xL(Δ27-81ΔCT), equimolar 100 μM, 30 °C, checked at 5 μM (for TCTP-R21A)
T1 construct: one containing the fragment 1-26, and the other the fragment 81-209; 6His (N, cleaved yes); made in house; host or cells: Escherichia coli BL21 (DE3) pRARE2
T1 sequence (Q07817 with tags, fused parts or gaps DEL27-82): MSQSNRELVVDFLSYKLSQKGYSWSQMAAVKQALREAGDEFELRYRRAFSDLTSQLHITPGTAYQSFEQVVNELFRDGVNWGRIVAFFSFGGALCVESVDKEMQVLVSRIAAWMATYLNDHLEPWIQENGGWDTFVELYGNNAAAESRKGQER
Procedure: When not specified, proteins tested for binding experiments were mixed at 100 μM, dialyzed against 10 mM CHES pH 9, 50 mM NaCl, 1 mM DTT or TCEP, depending on the analysis, and heated overnight at 30 °C.
For binding experiments, 100 to 200PL of protein mixture were loaded on a size exclusion chromatography (S200, GE Healthcare) column, while elution profiles were measured by UV absorption at 280 nm.
SEC-MALS experiments were performed on a multi-angle light scattering detector (miniDAWN TREOS, Wyatt Technologies) coupled in-line with SEC and an interferometric refractometer (Optilab T-rEX, Wyatt Technologies). See Supplementary Information for full details.
Prior to any mass spectrometry experiment, protein buffer was exchanged twice against a 50 mM ammonium acetate (NH4Ac) solution at pH 9.0 using microcentrifuge gel filtration columns (Zeba 0.5 ml, Thermo Scientific, Rockford, IL). Protein concentration was determined spectrophotometrically. […]
Supplementary Table 1. Measured molecular weights in denaturing conditions Sample Theoretical molecular Measured molecular Associated mass (Da) mass (Da) species […]
Gel filtration. For binding experiments, 100 to 200PL of protein mixture were loaded on a size exclusion chromatography (S200, GE Healthcare) column, while elution profiles were measured by UV absorption at 280nm. […]

[2] = test system: Bcl-xL; assay: In cellulo BRET between Luciferase-fused TCTP and YFP-fused Bcl-xL; type: cell-based; settings: MCF-7 cells; donor Luciferase-fused TCTP, acceptor YFP-fused Bcl-xL
Excerpt: See Supplementary Information for full details.
Twenty-four hours later, cells
Protein expression and purification

[3] = test system: Bcl-xL inhibition of cBid/Bax; assay: In vitro reconstitution liposome permeabilization, cBid/Bax with Bcl-xL; type: biochemical; settings: ANTS/DPX liposomes, 100 nM Bax, 20 nM cBid, pre-incubation pH 9, 45 min, 37 °C, 5 h, pH 7
Excerpt: (§1) This purified assay system measures direct interactions in which full-length untagged Bcl-xL inhibits permeabilization by binding full-length caspase 8 cleaved Bid (cBid) and/or full-length untagged Bax, thereby preventing Bax oligomerization in membranes. […] In these assays liposome permeabilization by activated Bax releases the entrapped fluorophore/quencher pair 8-aminonaphthalene-1,3,6-trisulfonic acid (ANTS)/p-xylene-bispyridinium (DPX), resulting in a measurable increase of fluorescence.
(§2) (A–E) in vitro reconstitution assay on liposome permeabilization. […] The treated Bcl-xL was then added to reactions containing ANTS-DPX liposomes, 100 nM Bax and 20 nM of either cBid (A,B) or cBidmt1(C,D) at pH 7. Liposome permeabilization was quantified by fluorescence after 5h incubation at 37 °C where 100% release was defined as the fluorescence change due to lipid solubilization with 1% Triton X-100. […] Error bars, std. dev. n = 3. […] Cyto c extra-mito: in the supernatant, analysed by Western blot. […]
(§3) Figure 10 A,B) or cBid mt1 (Supplementary Figure 10 C,D) at pH 7 to quantify the activity of Bcl-xL inhibition of liposome permeablization. […]
(§4) then added to reactions containing ANTS-DPX liposomes, 100nM Bax and 20nM of either c Bid (A, C) or cBid mt1(B, D) at pH 7 and liposome permeabilization was quantified by fluorescence […]

[4] = test system: Bcl-xL inhibition of cBidmt1/Bax; assay: In vitro reconstitution liposome permeabilization, cBidmt1/Bax with Bcl-xL; type: biochemical; settings: ANTS/DPX liposomes, 100 nM Bax, 20 nM cBidmt1, pre-incubation pH 9, 45 min, 37 °C, 5 h, pH 7
Excerpt: as §1, §2, §3, §4

[5] = test system: Bax mediated cytochrome c release, Bcl-xL; assay: Cytochrome c release from purified mitochondria by tBid and Bax in the presence of Bcl-xL; type: biochemical; settings: mouse liver mitochondria; 5 nM tBid, 50 nM Bax, 300 nM Bcl-xL; 15 min, 30 °C; Western blot
Procedure: as §2, with “3. To compare between the TCTP treated groups and the Control group statistically, two-way ANOVA test was performed for (A–D) and one-way ANOVA test was performed for (E). […] Colored asterisks above each data point indicate the statistical significance (*p < 0.05; **p < 0.01, no asterisks if p ≥ 0.05). A complete statistical analysis is provided in Supplementary Table 2–4.” for “3.”
to highlight the pre-incubation), pH 9, 30 C° before being added to the mitochondria at their final concentrations. […] Cytochrome c was detected in the mitochondrial fraction (Cyto c intra-mito) or in the supernatant (Cyto c extra-mito) by Western blot analysis. […]
Cytochrome c release assay. […] Mitochondrial pellets and the corresponding supernatant fractions were subjected to SDS-polyacrylamide gel electrophoresis and analyzed by Western blotting for cytochrome c.

B1: TCTP R21A: full-length TCTP protein bearing the mutation R21A (protein)
chain: MIIYRDLISHDEMFSDIYKIAEIADGLCLEVEGKMVSRTEGNIDDSLIGGNASAEGPEGEGTESTVITGVDIVMNHHLQETSFTKEAYKKYIKDYMKSIKGKLEEQRPERVKPFMTGAAEQIKHILANFKNYQFFIGENMNPDGMVALLDYREDGVTPYMIFFKDGLEMEKC
Question: How did the “complex formation with Bcl-xL” value [1] turn out when B1 was run?
Answer: no peak; also recorded: no complex formation

Question: And the “BRET signals with Bcl-xL” value [2]?
Answer: lack of binding

Question: And the “effect on Bcl-xL inhibition of cBid/Bax-mediated liposome permeabilization” value [3]?
Answer: no effect on Bcl-xL activity

Question: What about the “effect on Bcl-xL inhibition of cBidmt1/Bax-mediated liposome permeabilization” value [4] of the same molecule?
Answer: no effect on Bcl-xL activity

Question: What about the “potentiation of Bcl-xL (cytochrome c release)” value [5] of the same molecule?
Answer: do not potentiate Bcl-xL
